From patent US20240279315A1 (priority 2023, published 2024)
Read-outs that look alike come from different tables or passages of the source.

What was measured:
[1] = system: influenza A/Hong Kong/2369/2009 (H1N1pdm) H275Y; design: species or system BALB/c mice; conditions: mouse, in vivo
[2] = target: hemagglutinin (HA) of influenza A/Michigan/45/2015 pH1N1 (influenza A virus A/Michigan/45/2015 (H1N1)); assay: cell-based or functional assay
[3] = target: hemagglutinin (HA) of influenza A/Michigan/45/2015 pH1N1 (influenza A virus A/Michigan/45/2015 (H1N1)); assay: cell-based or functional assay; remark: listed apart in the source
[4] = target: hemagglutinin (HA) of influenza A/Guangdong-maonan/2019 H1N1 (influenza A virus A/Guangdong-maonan/2019 (H1N1)); assay: cell-based or functional assay
[5] = target: hemagglutinin (HA) of influenza A/Hong Kong/2671/2019 (Egg) H3N2 (influenza A virus A/Hong Kong/2671/2019 (H3N2)); assay: cell-based or functional assay
[6] = target: hemagglutinin (HA) of influenza A/Guangdong-maonan/2019 H1N1 (influenza A virus A/Guangdong-maonan/2019 (H1N1)); assay: cell-based or functional assay; remark: listed apart in the source
[7] = target: hemagglutinin (HA) of influenza A/Michigan/45/2015 pH1N1 (influenza A virus A/Michigan/45/2015 (H1N1)); assay: cell-based or functional assay; remark: listed apart in the source

| Compound | protection from weight loss [1] | HAI titer [2] | HAI titer [3] | HAI titer (Cell) [4] | HAI titer (Egg) [4] | HAI titer ratio of SAB-176 to hIVIG (Cell) [4] | HAI titer ratio of SAB-176 to hIVIG (Egg) [4] | HAI titer (Egg) [5] | HAI titer ratio of SAB-176 to hIVIG (Egg) [5] | HAI titer of drug product [2] | HAI titer [6] | HAI titer ratio of SAB-176 to hIVIG [6] | HAI titer [7] | HAI titer ratio of SAB-176 to hIVIG [7] | HAI titer ratio of SAB-176 to hIVIG [2] | HAI titer of drug product [4] |
| --- | --- | --- | --- | --- | --- | --- | --- | --- | --- | --- | --- | --- | --- | --- | --- | --- |
| CCOC(=O)C1=C[C@@H](OC(CC)CC)[C@H](NC(C)=O)[C@@H](N)C1 [oseltamivir] | did not protect mice from weight loss | – | – | – | – | – | – | – | – | – | – | – | – | – | – | – |
| SAB-176 (antibody) | – | > 2048 titer | – | – | – | – | – | – | – | – | – | – | – | – | – | – |
| SAB-176 Lot 1 (PD1901102QR) (antibody) | – | – | 1280 titer | 512 titer | 512 titer | 16 X | 16 to 32 X | 64 titer | 4 to 8 X | 7680 titer | 512 titer | 16 to 32 X | 512 titer | 16 X | – | – |
| SAB-176 Lot 2 (PD2001010QR) (antibody) | – | 512 titer | 1280 titer | 512 titer | 512 titer | 16 X | 16 to 32 X | 128 titer | 8 to 16 X | 14300 titer | – | – | – | – | 16 X | – |
| SAB-176 Lot 3 (antibody) | – | 512 titer | – | 512 titer | 512 titer | 16 X | 16 to 32 X | 256 titer | 16 to 32 X | – | – | – | – | – | 16 X | – |
| SAB-176 Lot 4 (PD2102092QR) (antibody) | – | 512 titer | 1810 titer | 512 titer | 512 titer | 16 X | 16 to 32 X | 256 titer | 16 to 32 X | – | 512 titer | 16 to 32 X | – | – | 16 X | 7680 titer |
| SAB-176 Lot 5 (PD2203294QR) (antibody) | – | – | 1280 titer | – | – | – | – | – | – | – | – | – | – | – | – | – |
| SAB-176 Lot 6 (PD2204315QR) (antibody) | – | – | 905 titer | – | – | – | – | – | – | – | – | – | – | – | – | – |
| negative control IgG (antibody) | – | < 1 titer | – | < 1 titer | < 1 titer | – | – | < 1 titer | – | – | < 1 titer | – | – | – | – | – |
